pKd: −log10 of the molar value. Some results are limits rather than exact numbers.

The target of one assay is HLA-A*01:01. The assay can be described thus: IEDB peptide-MHC binding, purified MHC/direct/fluorescence; filed as Kd, often an IC50 or EC50 that approximates it; ≥ and ≤ were set here for values at or beyond the usual limits of such assays.
A further assay deals with HLA-A*02:01. The description is as above.
The target of a further assay is HLA-A*11:01. Described as above.
The next assay concerns the target HLA-A*26:02. The assay is described as above. The note with it: source organism: Ravn virus - Ravn, Kenya, 1987.
The target of another assay is HLA-A*26:03. Described as above. The note with it: source organism: Ravn virus - Ravn, Kenya, 1987.
A further assay concerns the target HLA-A*31:01. Described as above.
Another assay concerns the target HLA-A*68:02. The assay is described as above. The note with it: source organism: Marburg virus - Musoke, Kenya, 1980.
The target in another assay is HLA-A*69:01. The assay is described as above.
In the next assay the target is HLA-B*07:02. The assay is described as above.
Another assay addresses HLA-B*08:02. Described as above.
In the next assay the target is HLA-B*08:03. Described as above. The note with it: source organism: Ravn virus - Ravn, Kenya, 1987.
For assay [1], the target named is HLA-B*15:17. Described as above. The note with it: source organism: Marburg virus - Musoke, Kenya, 1980.
The target in the next assay is HLA-B*18:01. The description is as above.
For the next assay, the target named is HLA-B*27:05. Described as above.
In assay [2] the target is HLA-B*39:01. Described as above. The note with it: source organism: Ravn virus - Ravn, Kenya, 1987.
For another assay, the target named is HLA-B*40:01. The assay is described as above.
Another assay concerns the target HLA-B*44:02. The description is as above. The settings on record: source organism: Marburg virus - Musoke, Kenya, 1980.
A further assay has as its target HLA-B*48:01. The description is as above.
The target of another assay is HLA-B*57:01. The description is as above.
Another assay has as its target HLA-B*58:01. The description is as above.
A further assay has as its target HLA-B*15:02. Described as above. The note with it: source organism: dengue virus type 4.
In another assay the target is HLA-B*46:01. Described as above.
Another assay addresses HLA-A*02:03. The assay is described as above. The settings on record: source organism: Giardia lamblia ATCC 50803.
A further assay deals with HLA-A*02:11. Described as above. The note with it: source organism: Giardia lamblia ATCC 50803.
In a further assay the target is HLA-A*02:12. The description is as above. The settings on record: source organism: Giardia lamblia ATCC 50803.
A further assay addresses HLA-A*03:01. Described as above. The note with it: source organism: Giardia lamblia ATCC 50803.
In another assay the target is HLA-A*26:01. The assay is described as above. The note with it: source organism: Giardia lamblia ATCC 50803.
Another assay addresses HLA-B*08:01. The description is as above. The note with it: source organism: Giardia lamblia ATCC 50803.
Another assay addresses HLA-B*15:01. The assay is described as above. The settings on record: source organism: Giardia lamblia ATCC 50803.
Another assay deals with HLA-B*38:01. The description is as above. The note with it: source organism: Giardia lamblia ATCC 50803.
Another assay addresses HLA-A*30:01. The assay can be described thus: IEDB peptide-MHC binding, purified MHC/competitive/fluorescence; filed as Kd, often an IC50 or EC50 that approximates it; ≥ and ≤ were set here for values at or beyond the usual limits of such assays. The settings on record: source organism: Giardia lamblia ATCC 50803.
The target of a further assay is HLA-B*15:09. The assay is described as above. The settings on record: source organism: Giardia lamblia ATCC 50803.
Assay [3] addresses HLA-B*15:17. The description is as above. The note with it: source organism: Giardia lamblia ATCC 50803.
Assay [4] addresses HLA-B*39:01. The description is as above. The note with it: source organism: Giardia lamblia ATCC 50803.
[5] abbreviates: source organism: Marburg virus - Musoke, Kenya, 1980.
Setting [6] is: source organism: Giardia lamblia ATCC 50803.

On to AEALLADGL, for which the pKd with HLA-A*01:01 (setting [5]), with HLA-A*02:01 (setting [5]), in the assay with HLA-A*11:01 (setting [5]), with HLA-A*26:02, with HLA-A*26:03 and with HLA-A*31:01 (setting [5]) was at most 4.70 in each case. Further, the negative-log Kd (pKd) with HLA-A*68:02 was at most 4.70; with HLA-A*69:01 (setting [5]) it was at most 4.70; with HLA-B*07:02 (setting [5]), at most 4.70; with HLA-B*08:02 (source organism: Ravn virus - Ravn, Kenya, 1987), at most 4.70; with HLA-B*08:03 it was at most 4.70; with HLA-B*15:17 [1] it was at most 4.70. The pKd with HLA-B*18:01 (setting [5]) was 5.76; in the assay with HLA-B*27:05 (setting [5]), at most 4.70; in the assay with HLA-B*39:01 [2] it was at most 4.70; with HLA-B*40:01 (setting [5]) it was 7.95; with HLA-B*44:02, at most 5.00; with HLA-B*48:01 (setting [5]), at most 4.70. The pKd in the assay with HLA-B*57:01 (setting [5]) and with HLA-B*58:01 (setting [5]) was at most 4.70 in each case.

Regarding AQEDDQYVF, the pKd in the assay with HLA-B*15:02 and with HLA-B*46:01 (source organism: dengue virus type 4) was at most 4.70 each time.

As to LPVFATIGL, the pKd in the assay with HLA-A*01:01 (setting [6]) was at most 4.70; with HLA-A*02:01 (setting [6]) it was 5.12; with HLA-A*02:03, at most 4.70; in the assay with HLA-A*02:11, 6.84; in the assay with HLA-A*02:12, 6.41; with HLA-A*03:01, at most 4.70. Further, the pKd with HLA-A*11:01 (setting [6]) is at most 4.70; with HLA-A*26:01, at most 4.70; with HLA-A*31:01 (setting [6]) it was at most 4.70; with HLA-A*69:01 (setting [6]), 7.93; in the assay with HLA-B*07:02 (setting [6]), 7.23; with HLA-B*08:01, at most 4.70. Besides, the pKd in the assay with HLA-B*08:02 (setting [6]) was at most 4.70; with HLA-B*15:01 it was at most 4.70; with HLA-B*18:01 (setting [6]), 5.51; with HLA-B*27:05 (setting [6]), at most 4.70; with HLA-B*38:01, at most 4.70; in the assay with HLA-B*40:01 (setting [6]), at most 4.70. The pKd in the assay with HLA-B*46:01 (setting [6]) was at most 4.70; with HLA-B*48:01 (setting [6]) it was at most 4.70; with HLA-B*57:01 (setting [6]), at most 4.70; with HLA-B*58:01 (setting [6]), at most 4.70; in the assay with HLA-A*30:01, at most 4.70; with HLA-B*15:09, 5.70. The pKd in the assay with HLA-B*15:17 [3] was at most 4.70; in the assay with HLA-B*39:01 [4] it was 7.04.

These data come from the Immune Epitope Database (IEDB).
